Test results taken from patent US20190314526A1.

Legend:
[1] = biological target: AAV-2 capsid mutant V571K (rAAV-2 virion) (AAV-2) (UniProt P03135); assay: A20/IgG sandwich ELISA: capture on coated Panglobulin, detection with A20-biotin; against wild type
[2] = biological target: AAV-2 capsid mutant N568A (rAAV-2 virion) (AAV-2) (UniProt P03135); assay: cell-based or functional assay
[3] = biological target: AAV-2 capsid mutant D132N (rAAV-2 virion) (AAV-2) (UniProt P03135); assay: cell-based or functional assay
[4] = biological target: AAV-2 with a wild-type capsid (rAAV-2 virion) (AAV-2) (UniProt P03135); assay: all-human IgG ELISA, virus needed for half maximal OD, against wild type
[5] = biological target: AAV-2 capsid mutant T413K (rAAV-2 virion) (AAV-2) (UniProt P03135); assay: all-human IgG ELISA, against wild type
[6] = biological target: AAV-2 capsid mutant S130A (rAAV-2 virion) (AAV-2) (UniProt P03135); assay: all-human IgG ELISA, against wild type
[7] = biological target: AAV-2 capsid mutant H372Q (rAAV-2 virion) (AAV-2) (UniProt P03135); assay: all-human IgG ELISA, against wild type
[8] = biological target: AAV-2 capsid mutant V571K (rAAV-2 virion) (AAV-2) (UniProt P03135); assay: all-human IgG ELISA, against wild type
[9] = biological target: AAV-2 capsid mutant N568A/V571A (rAAV-2 virion) (AAV-2) (UniProt P03135); assay: all-human IgG ELISA, against wild type
[10] = biological target: AAV-2 capsid mutant N360H (rAAV-2 virion) (AAV-2) (UniProt P03135); assay: all-human IgG ELISA, against wild type
[11] = biological target: AAV-2 capsid mutant R334A (rAAV-2 virion) (AAV-2) (UniProt P03135); assay: all-human IgG ELISA, against wild type
[12] = biological target: AAV-2 capsid mutant H372K (rAAV-2 virion) (AAV-2) (UniProt P03135); assay: all-human IgG ELISA, against wild type
[13] = biological target: AAV-2 capsid mutant N568K (rAAV-2 virion) (AAV-2) (UniProt P03135); assay: all-human IgG ELISA, against wild type
[14] = biological target: AAV-2 capsid mutant G449A (rAAV-2 virion) (AAV-2) (UniProt P03135); assay: all-human IgG ELISA, against wild type
[15] = biological target: AAV-2 capsid mutant H134Q (rAAV-2 virion) (AAV-2) (UniProt P03135); assay: all-human IgG ELISA, against wild type
[16] = biological target: AAV-2 capsid mutant N568A (rAAV-2 virion) (AAV-2) (UniProt P03135); assay: all-human IgG ELISA, against wild type
[17] = biological target: AAV-2 capsid mutant G246A (rAAV-2 virion) (AAV-2) (UniProt P03135); assay: all-human IgG ELISA, against wild type
[18] = biological target: AAV-2 capsid mutant S130T (rAAV-2 virion) (AAV-2) (UniProt P03135); assay: all-human IgG ELISA, against wild type
[19] = biological target: AAV-2 capsid mutant R334A/G449A/N568A (rAAV-2 virion) (AAV-2) (UniProt P03135); assay: all-human IgG ELISA, against wild type
[20] = biological target: AAV-2 capsid mutant E393D (rAAV-2 virion) (AAV-2) (UniProt P03135); assay: all-human IgG ELISA, against wild type
[21] = biological target: AAV-2 capsid mutant E411A/T413A/G449A/N450A (rAAV-2 virion) (AAV-2) (UniProt P03135); assay: all-human IgG ELISA, against wild type
[22] = biological target: AAV-2 capsid mutant E411A/T413A (rAAV-2 virion) (AAV-2) (UniProt P03135); assay: all-human IgG ELISA, against wild type
[23] = biological target: AAV-2 capsid mutant G449A/N568A (rAAV-2 virion) (AAV-2) (UniProt P03135); assay: all-human IgG ELISA, against wild type
[24] = biological target: AAV-2 capsid mutant R334A/G449A (rAAV-2 virion) (AAV-2) (UniProt P03135); assay: all-human IgG ELISA, against wild type
[25] = biological target: AAV-2 capsid mutant R334A/N568A (rAAV-2 virion) (AAV-2) (UniProt P03135); assay: all-human IgG ELISA, against wild type
[26] = biological target: AAV-2 capsid mutant D132N (rAAV-2 virion) (AAV-2) (UniProt P03135); assay: all-human IgG ELISA, against wild type
[27] = biological target: AAV-2 capsid mutant D357E (rAAV-2 virion) (AAV-2) (UniProt P03135); assay: all-human IgG ELISA, against wild type

purified human IgG from >10,000 donors (Panglobulin, ZLB Bioplasma AG)
100 fold: fold reduction of binding [1]
1 fold: Fold decrease in binding of human IgG [4] | Fold decrease in binding of human IgG [5] | Fold decrease in binding of human IgG [6] | Fold decrease in binding of human IgG [7] | Fold decrease in binding of human IgG [9] | Fold decrease in binding of human IgG [10] | Fold decrease in binding of human IgG [11] | Fold decrease in binding of human IgG [12] | Fold decrease in binding of human IgG [13] | Fold decrease in binding of human IgG [14] | Fold decrease in binding of human IgG [15] | Fold decrease in binding of human IgG [16] | Fold decrease in binding of human IgG [17] | Fold decrease in binding of human IgG [18] | Fold decrease in binding of human IgG [19] | Fold decrease in binding of human IgG [20] | Fold decrease in binding of human IgG [21] | Fold decrease in binding of human IgG [22] | Fold decrease in binding of human IgG [23] | Fold decrease in binding of human IgG [24] | Fold decrease in binding of human IgG [25] | Fold decrease in binding of human IgG [26] | Fold decrease in binding of human IgG [27]
3.8 fold: Fold decrease in neutralizing titer [3]
2 fold: Fold decrease in neutralizing titer [2]
10 fold: Fold decrease in binding of human IgG [8]
